Experimental data taken from paper doi:10.1101/301655 (bioRxiv, 2018).

T1: Lon protease (Caulobacter crescentus) (Caulobacter crescentus, UniProt P0CAW0 1-799)
T1 sequence (looked up): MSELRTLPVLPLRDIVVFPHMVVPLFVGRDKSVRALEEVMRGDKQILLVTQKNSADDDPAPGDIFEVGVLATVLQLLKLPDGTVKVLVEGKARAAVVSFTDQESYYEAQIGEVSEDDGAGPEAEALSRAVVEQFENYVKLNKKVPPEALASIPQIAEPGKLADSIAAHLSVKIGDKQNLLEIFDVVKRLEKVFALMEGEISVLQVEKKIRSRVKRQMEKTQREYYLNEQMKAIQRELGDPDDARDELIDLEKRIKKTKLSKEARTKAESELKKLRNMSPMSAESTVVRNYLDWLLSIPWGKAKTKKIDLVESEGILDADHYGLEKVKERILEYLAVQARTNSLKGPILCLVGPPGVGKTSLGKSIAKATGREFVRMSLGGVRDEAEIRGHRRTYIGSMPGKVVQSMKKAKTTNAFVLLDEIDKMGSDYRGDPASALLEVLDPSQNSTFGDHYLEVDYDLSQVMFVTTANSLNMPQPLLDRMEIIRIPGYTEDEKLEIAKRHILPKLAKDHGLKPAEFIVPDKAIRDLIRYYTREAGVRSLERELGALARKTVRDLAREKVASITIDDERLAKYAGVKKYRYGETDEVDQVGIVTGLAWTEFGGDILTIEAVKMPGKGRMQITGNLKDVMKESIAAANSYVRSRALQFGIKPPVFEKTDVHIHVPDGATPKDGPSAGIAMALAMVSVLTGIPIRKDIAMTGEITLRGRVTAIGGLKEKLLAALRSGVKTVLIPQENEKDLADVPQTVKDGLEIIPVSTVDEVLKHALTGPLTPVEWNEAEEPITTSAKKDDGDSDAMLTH

B1: DnaA fragment 117-391 (linker domain II and AAA+ ATPase domain III) (domain or fragment, Caulobacter crescentus, UniProt P0CAU4 117-391, looked up)
chain: AVAAEPIEIVLPVSTDAPTVVAPSAKSPRTQGLQERFTFETFVPGPANEFAHAVARRIANWADGHFNPVLFHGPYGFGKTHLLNALAWEAMRNAPEKRVVYLTAERFLSTFVRAVMDRQTAAFKEELRAADLLIIDDVHFIAGKQSTQEELFHTLTALVGEGGRVVFSADRPPSAMTEMDAHLRSHLSAGLVCGLEPADRNLRLGILERKIQTLGAAHGFEPSIRPEVMQFLADRFTDSVRELEGALNTLSARAGEGLSRMTLDEVQAILRPHLR
B2: DnaA fragment 143-391 (AAA+ ATPase domain III) (domain or fragment, Caulobacter crescentus, UniProt P0CAU4 143-391, looked up)
chain: SPRTQGLQERFTFETFVPGPANEFAHAVARRIANWADGHFNPVLFHGPYGFGKTHLLNALAWEAMRNAPEKRVVYLTAERFLSTFVRAVMDRQTAAFKEELRAADLLIIDDVHFIAGKQSTQEELFHTLTALVGEGGRVVFSADRPPSAMTEMDAHLRSHLSAGLVCGLEPADRNLRLGILERKIQTLGAAHGFEPSIRPEVMQFLADRFTDSVRELEGALNTLSARAGEGLSRMTLDEVQAILRPHLR
B3: DnaA fragment 143-490 (domains III+IV) (domain or fragment, Caulobacter crescentus, UniProt P0CAU4 143-490, looked up)
chain: SPRTQGLQERFTFETFVPGPANEFAHAVARRIANWADGHFNPVLFHGPYGFGKTHLLNALAWEAMRNAPEKRVVYLTAERFLSTFVRAVMDRQTAAFKEELRAADLLIIDDVHFIAGKQSTQEELFHTLTALVGEGGRVVFSADRPPSAMTEMDAHLRSHLSAGLVCGLEPADRNLRLGILERKIQTLGAAHGFEPSIRPEVMQFLADRFTDSVRELEGALNTLSARAGEGLSRMTLDEVQAILRPHLRSGEKRITIDDIQKATAEHYGMKQADLLSERRNRAVARPRQAAMWLAKQLTTRSLPDIGRRFGGRDHTTVLHAVRRIEALRAEDSALSHDLETLTRKLRG

Molecular target: T1, Lon protease (Caulobacter crescentus)
Assay: filtration-spin binding assay

Binder | binding result
B1 | binds
B2 | binds
B3 | binds
